These results are taken from PMC5353707.

The target in assay [1] is fragment TM456 of human thrombomodulin (soluble EGF456 domains) (human) (UniProt P07204).
The target is the same in assay [2]. Put plainly: SPR; biotinyl-TM456 on a neutravidin-coated CM5 chip (177 RU); thrombin injected at 30 μl/min, contact and dissociation 120 sec; 25 °C; Biacore-S200; TM456 loaded in 10 mM HEPES pH 7.4, 150 mM NaCl, 2.5 mM Ca2+, 0.05% Tween20; Kd from response units at the steady state.
Assay [3] deals with EGF456 (TM456) component of the thrombin-thrombomodulin fusion proteins (human) (UniProt P07204).
The target in assay [4] is Full-length rabbit thrombomodulin (TM) (rabbit).

Take “thrombin double mutant W215A/E217A (WE) (enzyme)”: the kcat/KM of protein C activation by thrombin WE with 500 nM TM456 in assay [1] came to 380 M⁻¹ s⁻¹. Also, the Kd (as a rule, the constant that tells how readily two partners part at equilibrium) in assay [2] came out at 31 nM.
With thrombin wild-type (enzyme), in assay [3], the kcat/KM of cleavage of the PAR1 fragment by FP7 (thrombin fused to TM456, 7-residue linker) was found to be 5.8e+06 M⁻¹ s⁻¹; the kcat/KM of cleavage of the PAR1 fragment by FP17 (thrombin fused to TM456, 17-residue linker) worked out at 2e+06 M⁻¹ s⁻¹; the kcat/KM of cleavage of the PAR1 fragment by FP31 (thrombin fused to TM456, 31-residue linker) came to 300000 M⁻¹ s⁻¹; the kcat/KM of cleavage of the PAR1 fragment by FP41 (thrombin fused to TM456, 41-residue linker) was determined as 950000 M⁻¹ s⁻¹. For the same substance, in assay [3], the kcat/KM of cleavage of the PAR1 fragment by FP55 (thrombin fused to TM456, 55-residue linker) amounted to 2.3e+06 M⁻¹ s⁻¹; the kcat/KM of cleavage of the PAR1 fragment by FP69 (thrombin fused to TM456, 69-residue linker) was 1.4e+07 M⁻¹ s⁻¹; the kcat/KM of fibrinopeptide A release by FP7 (thrombin fused to TM456, 7-residue linker) was determined as 6.7e+06 M⁻¹ s⁻¹; the kcat/KM of fibrinopeptide A release by FP17 (thrombin fused to TM456, 17-residue linker) is 1.55e+06 M⁻¹ s⁻¹. Besides, in assay [3], the kcat/KM of fibrinopeptide A release by FP31 (thrombin fused to TM456, 31-residue linker) is 300000 M⁻¹ s⁻¹; the kcat/KM of fibrinopeptide A release by FP41 (thrombin fused to TM456, 41-residue linker) amounted to 600000 M⁻¹ s⁻¹; the kcat/KM of fibrinopeptide A release by FP55 (thrombin fused to TM456, 55-residue linker) was 1.3e+06 M⁻¹ s⁻¹; the kcat/KM of fibrinopeptide A release by FP69 (thrombin fused to TM456, 69-residue linker) came to 1.1e+07 M⁻¹ s⁻¹. For the same substance, in assay [3], the kcat/KM of protein C activation by FP7 (thrombin fused to TM456, 7-residue linker) is 1100 M⁻¹ s⁻¹; the kcat/KM of protein C activation by FP17 (thrombin fused to TM456, 17-residue linker) came to 6100 M⁻¹ s⁻¹; the kcat/KM of protein C activation by FP31 (thrombin fused to TM456, 31-residue linker) came out at 85000 M⁻¹ s⁻¹; the kcat/KM of protein C activation by FP41 (thrombin fused to TM456, 41-residue linker) stood at 107000 M⁻¹ s⁻¹. Besides, in assay [3], the kcat/KM of protein C activation by FP55 (thrombin fused to TM456, 55-residue linker) worked out at 120000 M⁻¹ s⁻¹ and the kcat/KM of protein C activation by FP69 (thrombin fused to TM456, 69-residue linker) was determined as 74000 M⁻¹ s⁻¹. For the same substance, in assay [4], the kcat/KM of protein C activation by thrombin with TM worked out at 230000 M⁻¹ s⁻¹. Also, the kcat/KM of protein C activation by thrombin with 500 nM TM456 in assay [1] is 80000 M⁻¹ s⁻¹. In assay [2], this substance came in with a dissociation constant Kd of 18 nM.
With “thrombin W215A/E217A (WE) component of the fusion protein FP31WE (domain or fragment)”, the kcat/KM of protein C activation by FP31WE (thrombin WE fused to EGF456, 31-residue linker) in assay [3] turned out to be 550 M⁻¹ s⁻¹.
Take thrombin mutant W215A (enzyme): the kcat/KM of protein C activation by FP31W215A (thrombin W215A fused to EGF456, 31-residue linker) in assay [3] was 3300 M⁻¹ s⁻¹. The kcat/KM of protein C activation by thrombin W215A with 500 nM TM456 in assay [1] is 3200 M⁻¹ s⁻¹. For the same substance, the Kd in assay [2] was determined as 23 nM.
